B1: 9976-TCR38-2 (TCR)
TCR alpha: AQSVTQLGSHVSVSEGALVLLRCNYSSSVPPYLFWYVQYPNQGLQLLLKYTTGATLVKGINGFEAEFKKSETSFHLTKPSAHMSDAAEYFCAVTEPGGYQKVTFGTGTKLQVIPNIQNPEPAVNIQNPEPAVYQLKDPRSQDSTLCLFTDFDSQINVPKTMESGTFITDKTVLDMKAMDSKSNGAIAWSNQTSFTCQDIFKETNATYPSSDVPCDATLTEKSFETDMNLNFQNLLVIVLRILLLKVAGFNLLMTLRLWSS
TCR beta: GAVVSQHPSRVICKSGTSVKIECRSLDFQATTMFWYRQFPKQSLMLMATSNEGSKATYEQGVEKDKFLINHASLTLSTLTVTSAHPEDSSFYICSATGQHAGANVLTFGAGSRLTVLEDLRNEDLRNVTPPKVSLFEPSKAEIANKQKATLVCLARGFFPDHVELSWWVNGKEVHSGVSTDPQAYKESNYSYCLSSRLRVSATFWHNPRNHFRCQVQFHGLSEEDKWPEGSPKPVTQNISAEAWGRADCGITSASYQQGVLSATILYEILLGKATLYAVLVSTLVVMAMVKRKNS
B2: 9976-TCR38-2 (protein)
chain 1: QSVTQLGSHVSVSEGALVLLRCNYSSSVPPYLFWYVQYPNQGLQLLLKYTTGATLVKGINGFEAEFKKSETSFHLTKPSAHMSDAAEYFCAVTEPGGYQKVTFGTGTKLQVIP
chain 2: AVVSQHPSRVICKSGTSVKIECRSLDFQATTMFWYRQFPKQSLMLMATSNEGSKATYEQGVEKDKFLINHASLTLSTLTVTSAHPEDSSFYICSATGQHAGANVLTFGAGSRLTVL

How the values were obtained:
[1] = molecular target: KRAS G12V presented by HLA-DRB1*07:01 (human), P01116; assay: cell-based or functional assay
[2] = molecular target: KRAS G12V peptide on HLA-DRA*01:01 / HLA-DRB1*07:01 (human); assay: NFAT-luciferase; peptide titration in the Jurkat-NFAT and COS-7 system; full-length, on cells; conditions: chains Valpha:Vbeta

Binder | peptide concentration at which reactivity is still seen (peptide titration, Jurkat-NFAT & COS-7 system) [1] [ng/mL] | lowest peptide concentration with reactivity [2] [ng/mL]
B1 | 1 | 
B2 |  | < 1
